Common to all, as to format: biochemical
The nature of assay [1]: Inhibitor binding assay of SEQ ID NO 6 variants, Inhibitor 1, in Model B detergent. The conditions noted are these: in Model B relative to SEQ ID NO 6; relative Ki, IF>1.0 = lower Ki. An excerpt: (§1) Where E is the protease, I is the inhibitor and EI is the protease-inhibitor complex. […] The concentration of enzyme-inhibitor in the detergent solution is then given by:
(§2) where Etot is the total protease concentration ([Etot]=[E]+[EI]), Itot is the total inhibitor concentration ([Itot]=[I]+[EI]), and Ki is the equilibrium binding constant for the reaction. The measured slopes V are given by:
(§3) where V0 is the slope without inhibitor added. To calculate apparent binding constant Ki least square fitting of measured slopes at various inhibitor concentrations to this equation is performed with Ki and V0 as variables.
(§4) Purified protease variants are pre-diluted to approximately 0.2 mg/ml in dilution buffer. The experimental conditions are described in Table 5 40 μl diluted protease is then mixed with 40 μl inhibitor solution Inhibitor 1 or 40 μl inhibitor 2 solution in the well of a 96 well microtiter plate (Nunc F 96-MTP). […] After 10 min mixing of protease and inhibitor at room temperature, 30 μl of the mixture is transferred to a microtiter plate (Nunc U96 PP 0.5 ml) with 270 μl Model B detergent (described in Table 1) in the wells resulting in inhibitor 1 concentrations of 0-30 μM and inhibitor 2 concentrations of 0-6000 μM. Protease, inhibitor and detergent is mixed for 1 hour using magnetic bars for 1 hour at room temperature to reach equilibrium. Then 20 μl is transferred to a microtiter plate (Nunc F 96-MTP). 100 μl substrate solution is added and after 5 sec mixing absorbance at 405 nm is measured every 20 sec for 5 min on a SpectraMax Plus reader. Slope from linear regression of initial increase in absorbance at 405 nm is used for calculation of apparent binding constants. Ki values were calculated according to the “Calculation of Ki” method described in “Materials and Methods”
(§5) Having the Ki for each variant, it is possible to calculate the effect of a single mutation, if data are available for at least two variants that differ only by that mutation. In this case, the relative Ki for the mutation (Improvement Factor, or IF) is calculated: […]

The nature of assay [2]: Inhibitor binding assay of SEQ ID NO 6 variants, Inhibitor 2, in Model B detergent. The conditions noted are these: in Model B relative to SEQ ID NO 6; relative Ki, IF>1.0 = lower Ki.
Excerpt: as §1, §2, §3, §4, §5

A short description of assay [3]: Inhibitor binding assay of SEQ ID NO 3 variants, Inhibitor 1, in Model B detergent. To be noted: in Model B relative to SEQ ID NO 3; relative Ki, IF>1.0 = lower Ki.
Excerpt: as §1, §2, §3
(§6) Purified protease variants are pre-diluted to approximately 0.2 mg/ml in dilution buffer. The experimental conditions are described in Table 5. 40 μl diluted protease is then mixed with 40 μl inhibitor solution Inhibitor 1: (Cbz-Gly-Ala-NHCH(CH2C6H4pOH)C(OH)(SO3Na)—H, wherein Cbz is benzyloxycarbonyl) or 40 μl Inhibitor 2: (4-FPBA) solution in the well of a 96 well microtiter plate (Nunc F 96-MTP). […] After 10 min mixing of protease and inhibitor at room temperature, 30 μl of the mixture is transferred to a microtiter plate (Nunc U96 PP 0.5 ml) with 270 μl Model B detergent (described in Table 1) in the wells resulting in inhibitor 1 concentrations of 0-30 μM and inhibitor 2 concentrations of 0-6000 μM. Protease, inhibitor and detergent is mixed for 1 hour using magnetic bars for 1 hour at room temperature to reach equilibrium. Then 20 μl is transferred to a microtiter plate (Nunc F 96-MTP). 100 μl substrate solution is added and after 5 sec mixing absorbance at 405 nm is measured every 20 sec for 5 min on a SpectraMax Plus reader. Slope from linear regression of initial increase in absorbance at 405 nm is used for calculation of apparent binding constants. Ki values were calculated according to the “Calculation of Ki” method described in “Materials and Methods”
(§7) Having the Ki for each variant, it is possible to calculate the effect of a single mutation, if data are available for at least two variants that differ only by that mutation. In this case, the relative Ki for the mutation (Improvement Factor, or IF) is calculated:
(§8) A lower Ki is desirable, as a satisfactory inhibition can be obtained at a lower inhibitor concentration, so beneficial mutations have an IF>1.0

Assay [4] in a line: Inhibitor binding assay of SEQ ID NO 3 variants, Inhibitor 2, in Model B detergent. The conditions noted are these: in Model B relative to SEQ ID NO 3; relative Ki, IF>1.0 = lower Ki.
Excerpt: as §1, §2, §3, §6, §7, §8

B1: N60F + S100I: protease variant of SEQ ID NO 6 (protein)
chain: AQSVPWGISRVQAPAAHNRGLTGSGVKVAVLDTGISTHPDLNIRGGASFVPGEPSTQDGFGHGTHVAGTIAALNNSIGVLGVAPSAELYAVKVLGASEGIGSVSSIAQGLEWAGNNGMHVANLSLGSPSPSATLEQAVNSATSRGVLVVAASGNSGAGSISYPARYANAMAVGATDQNNNRASFSQYGAGLDIVAPGVNVQSTYPGSTYASLNGTSMATPHVAGAAALVKQKNPSWSNVQIRNHLKNTATSLGSTNLYGSGLVNAEAATR
modifications: Protease C
Turning to B1, in assay [1], the “inhibitor 1 binding constant improvement factors (IF)” value is recorded as 11.26.

B2: S100I + Y166F: protease variant of SEQ ID NO 6 (protein)
chain: AQSVPWGISRVQAPAAHNRGLTGSGVKVAVLDTGISTHPDLNIRGGASFVPGEPSTQDGNGHGTHVAGTIAALNNSIGVLGVAPSAELYAVKVLGASEGIGSVSSIAQGLEWAGNNGMHVANLSLGSPSPSATLEQAVNSATSRGVLVVAASGNSGAGSISYPARFANAMAVGATDQNNNRASFSQYGAGLDIVAPGVNVQSTYPGSTYASLNGTSMATPHVAGAAALVKQKNPSWSNVQIRNHLKNTATSLGSTNLYGSGLVNAEAATR
modifications: Protease C
Consider B2, for which the “inhibitor 2 binding constant improvement factors (IF)” value in assay [2] stood at 2.31. Moreover, the “inhibitor 1 binding constant improvement factors (IF)” value in assay [1] turned out to be 11.26.

B3: A164S: protease variant of SEQ ID NO 6 (protein)
chain: AQSVPWGISRVQAPAAHNRGLTGSGVKVAVLDTGISTHPDLNIRGGASFVPGEPSTQDGNGHGTHVAGTIAALNNSIGVLGVAPSAELYAVKVLGASEGSGSVSSIAQGLEWAGNNGMHVANLSLGSPSPSATLEQAVNSATSRGVLVVAASGNSGAGSISYPSRYANAMAVGATDQNNNRASFSQYGAGLDIVAPGVNVQSTYPGSTYASLNGTSMATPHVAGAAALVKQKNPSWSNVQIRNHLKNTATSLGSTNLYGSGLVNAEAATR
modifications: Protease C
Take B3: in assay [2], the “inhibitor 2 binding constant improvement factors (IF)” value came out at 1.84.

B4: S100I + L134V: protease variant of SEQ ID NO 6 (protein)
chain: AQSVPWGISRVQAPAAHNRGLTGSGVKVAVLDTGISTHPDLNIRGGASFVPGEPSTQDGNGHGTHVAGTIAALNNSIGVLGVAPSAELYAVKVLGASEGIGSVSSIAQGLEWAGNNGMHVANLSLGSPSPSATVEQAVNSATSRGVLVVAASGNSGAGSISYPARYANAMAVGATDQNNNRASFSQYGAGLDIVAPGVNVQSTYPGSTYASLNGTSMATPHVAGAAALVKQKNPSWSNVQIRNHLKNTATSLGSTNLYGSGLVNAEAATR
modifications: Protease C
For the molecule B4, the “inhibitor 2 binding constant improvement factors (IF)” value in assay [2] is listed as 1.1. Besides, the “inhibitor 1 binding constant improvement factors (IF)” value in assay [1] is 15.14.

B5: L184F: protease variant of SEQ ID NO 3 (protein, listed as Bacillus sp.)
chain: AVPSTQTPWGIKSIYNDQSITKTTGGSGIKVAVLDTGVYTSHLDLAGSAEQCKDFTQSNPLVDGSCTDRQGHGTHVAGTVLAHGGSNGQGVYGVAPQAKLWAYKVLGDNGSGYSDDIAAAIRHVADEASRTGSKVVINMSLGSSAKDSLIASAVDYAYGKGVLIVAAAGNSGSGSNTIGFPGGFVNAVAVAALENVQQNGTYRVADFSSRGNPATAGDYIIQERDIEVSAPGASVESTWYTGGYNTISGTSMATPHVAGLAAKIWSANTSLSHSQLRTELQNRAKVYDIKGGIGAGTGDDYASGFGYPRVK
In the case of B5, in assay [3], the “inhibitor 1 binding constant improvement factors (IF)” value is given as 2.27. The “inhibitor 2 binding constant improvement factors (IF)” value in assay [4] is reported as 1.39.

These data come from patent US20170342349A1, “STABILIZED ENZYME COMPOSITIONS” (NOVOZYMES A/S, priority 2014, published 2017).
